Test results: the supplement of paper PMC10065799, “High-throughput profiling of sequence recognition by tyrosine kinases and SH2 domains using bacterial peptide display” (eLife, 2023)

Legend:
AncSZ = test: phosphorylation enrichment, bacterial display (enrichment ratio); higher = better substrate or ligand; peptides without Tyr show the background
EPHB1 = EPHB1 (UniProt P54762); test: as above
EPHB2 = EPHB2 (UniProt P29323); test: as above
FGFR1 = FGFR1 (UniProt P11362); test: as above
FGFR3 = FGFR3 (UniProt P22607); test: as above
Fer (mouse) = test: as above
Fes = Fes (UniProt P07332); test: as above
Fes, sequence (P07332 whole entry, looked up): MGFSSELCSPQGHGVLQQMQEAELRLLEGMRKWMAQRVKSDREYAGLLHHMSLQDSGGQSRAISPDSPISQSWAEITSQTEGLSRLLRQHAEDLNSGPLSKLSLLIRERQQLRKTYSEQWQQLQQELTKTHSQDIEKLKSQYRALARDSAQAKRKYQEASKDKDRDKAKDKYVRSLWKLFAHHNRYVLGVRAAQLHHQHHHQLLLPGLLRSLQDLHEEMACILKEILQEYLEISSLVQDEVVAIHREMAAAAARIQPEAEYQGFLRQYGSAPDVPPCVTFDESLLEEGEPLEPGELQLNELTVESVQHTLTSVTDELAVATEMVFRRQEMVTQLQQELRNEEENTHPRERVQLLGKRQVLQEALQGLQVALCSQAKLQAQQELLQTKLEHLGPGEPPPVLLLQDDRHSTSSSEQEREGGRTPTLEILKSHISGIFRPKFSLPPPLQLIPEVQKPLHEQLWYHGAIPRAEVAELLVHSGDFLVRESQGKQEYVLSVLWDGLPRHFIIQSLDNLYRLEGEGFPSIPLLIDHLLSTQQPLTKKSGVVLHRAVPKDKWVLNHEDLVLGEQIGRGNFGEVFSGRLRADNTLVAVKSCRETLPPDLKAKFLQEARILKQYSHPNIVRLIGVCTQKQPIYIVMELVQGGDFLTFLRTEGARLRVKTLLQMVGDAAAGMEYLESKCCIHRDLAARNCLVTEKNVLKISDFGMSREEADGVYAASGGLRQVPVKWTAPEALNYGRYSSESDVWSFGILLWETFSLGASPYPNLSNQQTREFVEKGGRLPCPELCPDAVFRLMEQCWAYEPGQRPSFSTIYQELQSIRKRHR

Fyn = Fyn (UniProt P06241); test: as above
Fyn, sequence (P06241 whole entry, looked up): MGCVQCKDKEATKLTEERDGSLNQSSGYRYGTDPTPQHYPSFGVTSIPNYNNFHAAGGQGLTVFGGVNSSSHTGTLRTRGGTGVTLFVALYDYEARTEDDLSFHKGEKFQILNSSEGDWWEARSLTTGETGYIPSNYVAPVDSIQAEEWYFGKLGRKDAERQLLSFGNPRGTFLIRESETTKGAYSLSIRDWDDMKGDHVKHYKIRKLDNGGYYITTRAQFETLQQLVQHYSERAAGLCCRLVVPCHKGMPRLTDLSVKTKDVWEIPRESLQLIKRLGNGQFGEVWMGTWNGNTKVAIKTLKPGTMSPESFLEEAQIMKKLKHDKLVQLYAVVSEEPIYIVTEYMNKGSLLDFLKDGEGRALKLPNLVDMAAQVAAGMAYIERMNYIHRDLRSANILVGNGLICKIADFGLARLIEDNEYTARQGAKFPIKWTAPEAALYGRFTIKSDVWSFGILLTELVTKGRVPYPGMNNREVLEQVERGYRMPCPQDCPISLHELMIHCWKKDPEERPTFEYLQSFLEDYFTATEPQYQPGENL

Hck = Hck (UniProt P08631); test: as above
Hck, sequence (P08631 whole entry, looked up): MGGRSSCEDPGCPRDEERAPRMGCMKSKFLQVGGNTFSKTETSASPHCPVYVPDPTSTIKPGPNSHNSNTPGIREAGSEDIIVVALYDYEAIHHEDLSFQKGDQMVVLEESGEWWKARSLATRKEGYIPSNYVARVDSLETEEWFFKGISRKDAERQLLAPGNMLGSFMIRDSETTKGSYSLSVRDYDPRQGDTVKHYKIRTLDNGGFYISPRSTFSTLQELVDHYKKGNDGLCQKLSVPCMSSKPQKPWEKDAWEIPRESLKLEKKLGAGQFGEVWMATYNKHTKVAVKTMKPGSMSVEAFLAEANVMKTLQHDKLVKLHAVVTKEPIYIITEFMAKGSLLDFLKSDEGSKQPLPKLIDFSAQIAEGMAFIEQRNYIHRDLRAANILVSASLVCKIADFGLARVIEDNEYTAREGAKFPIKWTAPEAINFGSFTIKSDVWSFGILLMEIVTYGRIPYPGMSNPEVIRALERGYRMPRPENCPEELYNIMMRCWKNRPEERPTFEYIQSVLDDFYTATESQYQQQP

Jak2 = Jak2 (UniProt O60674); test: as above
MERTK = MERTK (UniProt Q12866); test: as above
c-Abl (mouse) = test: as above
c-Src = test: as above
Grb2 SH2 = Grb2 SH2 (UniProt P62993); test: SH2 binding enrichment of the phosphorylated peptide, bacterial display (enrichment ratio); higher = better substrate or ligand; peptides without Tyr show the background
Grb2 SH2, sequence (P62993 whole entry, looked up): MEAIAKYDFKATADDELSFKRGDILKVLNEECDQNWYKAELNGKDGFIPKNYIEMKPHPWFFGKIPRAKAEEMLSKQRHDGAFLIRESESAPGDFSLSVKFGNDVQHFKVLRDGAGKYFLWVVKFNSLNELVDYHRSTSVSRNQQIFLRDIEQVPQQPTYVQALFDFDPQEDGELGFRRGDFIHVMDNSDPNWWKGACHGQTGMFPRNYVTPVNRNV

SHP2-C SH2 = test: as above
c-Src SH2 = test: as above
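Wherever SH2 binding enrichment of the phosphorylated peptide, bacterial display is given: peptide library displayed on the E. coli surface as eCPX fusions, selected cells deep-sequenced, score is each peptide's frequency after selection divided by its frequency in the input.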
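Wherever phosphorylation enrichment, bacterial display is given: 11-residue human phosphosite peptides and single-mutation variants displayed on the E. coli surface, counted by deep sequencing, each peptide's frequency after selection divided by its frequency in the unselected input library; frequency after pTyr selection over input frequency; kinase dosed for 20-30% of maximal phosphorylation in three min.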

EPHB2, sequence (P29323 whole entry, looked up): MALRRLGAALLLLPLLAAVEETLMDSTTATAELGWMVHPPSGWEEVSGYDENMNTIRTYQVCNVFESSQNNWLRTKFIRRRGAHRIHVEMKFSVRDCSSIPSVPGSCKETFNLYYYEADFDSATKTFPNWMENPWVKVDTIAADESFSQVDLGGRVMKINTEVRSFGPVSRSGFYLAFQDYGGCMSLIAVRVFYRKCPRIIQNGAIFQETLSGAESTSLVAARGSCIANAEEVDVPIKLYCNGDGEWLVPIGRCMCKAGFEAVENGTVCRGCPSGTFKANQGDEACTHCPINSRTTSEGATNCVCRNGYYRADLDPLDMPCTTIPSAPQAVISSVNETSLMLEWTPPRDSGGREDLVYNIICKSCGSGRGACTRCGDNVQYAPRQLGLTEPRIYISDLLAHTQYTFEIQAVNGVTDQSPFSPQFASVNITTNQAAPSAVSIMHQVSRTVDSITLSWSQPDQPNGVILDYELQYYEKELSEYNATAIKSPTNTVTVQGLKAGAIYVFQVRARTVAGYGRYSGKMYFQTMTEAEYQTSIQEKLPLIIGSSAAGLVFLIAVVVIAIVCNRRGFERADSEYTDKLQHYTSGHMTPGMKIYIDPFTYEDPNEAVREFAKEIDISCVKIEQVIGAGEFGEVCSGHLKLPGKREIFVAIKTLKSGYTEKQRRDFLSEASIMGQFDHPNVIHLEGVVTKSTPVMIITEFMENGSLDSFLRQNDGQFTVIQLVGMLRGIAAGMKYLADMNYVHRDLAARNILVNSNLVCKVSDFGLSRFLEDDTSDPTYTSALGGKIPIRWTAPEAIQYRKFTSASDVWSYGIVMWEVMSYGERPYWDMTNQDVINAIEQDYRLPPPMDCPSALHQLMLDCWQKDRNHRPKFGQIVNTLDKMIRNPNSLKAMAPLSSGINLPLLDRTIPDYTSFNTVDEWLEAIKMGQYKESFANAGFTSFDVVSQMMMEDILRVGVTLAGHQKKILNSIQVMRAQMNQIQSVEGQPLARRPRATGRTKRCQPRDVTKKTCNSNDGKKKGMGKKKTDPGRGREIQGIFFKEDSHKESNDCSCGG
EPHB1, sequence (P54762 whole entry, looked up): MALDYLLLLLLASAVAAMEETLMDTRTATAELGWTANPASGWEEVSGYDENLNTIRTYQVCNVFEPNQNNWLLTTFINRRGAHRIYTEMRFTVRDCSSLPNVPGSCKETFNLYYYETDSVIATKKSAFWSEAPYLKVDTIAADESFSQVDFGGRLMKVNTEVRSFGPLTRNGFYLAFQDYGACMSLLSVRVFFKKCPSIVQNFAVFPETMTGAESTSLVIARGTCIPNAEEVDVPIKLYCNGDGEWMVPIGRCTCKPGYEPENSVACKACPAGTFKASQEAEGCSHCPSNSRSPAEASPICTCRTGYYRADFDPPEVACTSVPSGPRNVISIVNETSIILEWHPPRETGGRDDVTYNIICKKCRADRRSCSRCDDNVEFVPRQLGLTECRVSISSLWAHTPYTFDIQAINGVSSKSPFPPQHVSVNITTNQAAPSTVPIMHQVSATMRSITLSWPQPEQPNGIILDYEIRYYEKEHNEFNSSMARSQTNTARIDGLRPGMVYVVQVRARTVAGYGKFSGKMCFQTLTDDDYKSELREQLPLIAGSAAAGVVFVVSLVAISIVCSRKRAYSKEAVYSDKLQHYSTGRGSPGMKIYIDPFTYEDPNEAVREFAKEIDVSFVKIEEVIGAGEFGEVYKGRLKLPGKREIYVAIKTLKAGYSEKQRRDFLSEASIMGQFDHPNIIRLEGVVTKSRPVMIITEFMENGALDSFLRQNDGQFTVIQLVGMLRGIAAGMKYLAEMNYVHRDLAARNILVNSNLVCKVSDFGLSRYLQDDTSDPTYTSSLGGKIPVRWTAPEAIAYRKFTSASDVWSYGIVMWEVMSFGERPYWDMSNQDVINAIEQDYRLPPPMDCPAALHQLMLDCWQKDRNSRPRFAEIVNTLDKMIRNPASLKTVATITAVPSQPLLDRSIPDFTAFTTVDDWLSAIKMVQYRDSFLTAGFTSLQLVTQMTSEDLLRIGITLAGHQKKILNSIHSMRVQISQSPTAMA
FGFR1, sequence (P11362 whole entry, looked up): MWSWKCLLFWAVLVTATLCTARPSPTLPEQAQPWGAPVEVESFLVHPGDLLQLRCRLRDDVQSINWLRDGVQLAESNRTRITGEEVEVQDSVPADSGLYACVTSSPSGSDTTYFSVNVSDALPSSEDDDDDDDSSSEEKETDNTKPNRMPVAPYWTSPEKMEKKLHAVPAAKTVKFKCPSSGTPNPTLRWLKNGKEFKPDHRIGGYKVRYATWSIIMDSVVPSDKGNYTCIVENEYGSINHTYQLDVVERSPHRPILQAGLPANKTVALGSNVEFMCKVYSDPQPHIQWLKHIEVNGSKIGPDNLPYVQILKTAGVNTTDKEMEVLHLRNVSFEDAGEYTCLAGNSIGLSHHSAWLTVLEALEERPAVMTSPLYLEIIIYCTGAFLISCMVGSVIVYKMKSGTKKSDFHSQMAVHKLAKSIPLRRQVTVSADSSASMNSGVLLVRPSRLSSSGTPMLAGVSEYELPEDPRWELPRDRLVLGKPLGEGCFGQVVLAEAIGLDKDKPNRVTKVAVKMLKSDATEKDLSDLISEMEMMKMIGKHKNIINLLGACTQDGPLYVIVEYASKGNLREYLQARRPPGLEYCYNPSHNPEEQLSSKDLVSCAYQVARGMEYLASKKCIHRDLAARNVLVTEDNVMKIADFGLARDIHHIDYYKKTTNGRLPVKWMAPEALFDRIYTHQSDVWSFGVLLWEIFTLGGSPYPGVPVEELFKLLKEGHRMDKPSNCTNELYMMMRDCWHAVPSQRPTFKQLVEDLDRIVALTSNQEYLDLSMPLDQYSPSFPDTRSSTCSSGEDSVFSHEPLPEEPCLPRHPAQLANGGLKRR

Sequence | phosphorylation enrichment (AncSZ) | phosphorylation enrichment (EPHB1) | phosphorylation enrichment (EPHB2) | phosphorylation enrichment (FGFR1) | phosphorylation enrichment (FGFR3) | phosphorylation enrichment (Fer (mouse)) | phosphorylation enrichment (Fes) | phosphorylation enrichment (Fyn) | phosphorylation enrichment (Hck) | phosphorylation enrichment (Jak2) | phosphorylation enrichment (MERTK) | phosphorylation enrichment (c-Abl (mouse)) | phosphorylation enrichment (c-Src) | SH2 binding enrichment (Grb2 SH2) | SH2 binding enrichment (SHP2-C SH2) | SH2 binding enrichment (c-Src SH2)
SGSFRYGSSCE [SELE_Y390] | 0.642 | 0.412 | 0.456 | 0.393 | 0.554 | 0.353 | 0.801 | 0.45 | 0.47 | 0.644 | 0.388 | 0.486 | 0.466 | 0.748 | 0.747 | 0.528
KSPDSYQKILF [ATM_Y1415_L1420F] | 0.567 | 0.468 | 0.464 | 0.509 | 0.427 | 0.338 | 0.517 | 0.484 | 0.406 | 0.6 | 0.585 | 0.511 | 0.632 | 1.26 | 1.75 | 1.96
IQVNAYFSPIH [ADSL_Y432_D430N] | 1.76 | 0.727 | 0.536 | 0.595 | 0.795 | 0.548 | 1.29 | 0.431 | 0.543 | 2.16 | 0.589 | 1.14 | 0.543 | 0.964 | 1.34 | 0.959
EALDFYGEVRI [PTEN_Y155_T160I] | 1.49 | 0.871 | 0.614 | 0.538 | 1.1 | 1.55 | 1.73 | 1.64 | 1.13 | 2.03 | 0.494 | 1.11 | 1.44 | 1.09 | 0.567 | 0.499
IGLHAYGDQYR [IDH1_Y135_R132L] | 0.681 | 0.469 | 0.487 | 0.46 | 0.598 | 0.48 | 0.834 | 0.498 | 0.529 | 0.563 | 0.426 | 0.561 | 0.473 | 0.847 | 0.599 | 0.469
INSLKYAYNVS [EIF2B5_Y583_I587V] | 0.642 | 0.402 | 0.354 | 0.522 | 0.525 | 0.419 | 1.01 | 0.633 | 0.424 | 0.571 | 0.443 | 0.643 | 0.6 | 1.01 | 0.636 | 0.654
DNLNNYVFQGQ [GRIN2A_Y978] | 1.21 | 1.77 | 1.17 | 0.703 | 0.789 | 0.514 | 1.06 | 0.593 | 0.392 | 1.01 | 0.657 | 0.815 | 0.598 | 0.819 | 0.617 | 0.438
DALDNYVIRGV [PCCA_Y473] | 0.849 | 0.512 | 0.583 | 0.486 | 0.506 | 0.481 | 0.842 | 0.457 | 0.46 | 0.846 | 0.408 | 0.633 | 0.504 | 0.649 | 0.556 | 0.453
IQVDAYFSPIH [ADSL_Y432] | 1.17 | 0.738 | 0.75 | 0.638 | 0.772 | 0.652 | 1.33 | 0.605 | 0.684 | 2.15 | 0.551 | 0.936 | 0.484 | 0.797 | 0.529 | 0.604
RLLRGYDQFAY [HLA-C_Y137_S140F] | 0.794 | 0.422 | 0.433 | 0.49 | 0.617 | 0.502 | 0.848 | 0.395 | 0.49 | 0.567 | 0.433 | 0.775 | 0.514 | 1.47 | 1.14 | 1.65
TVQIMYGCDVG [HLA-A_Y123_I119V] | 0.945 | 0.676 | 0.773 | 0.539 | 0.917 | 0.611 | 1.22 | 0.575 | 0.567 | 0.955 | 0.444 | 0.737 | 0.47 | 0.861 | 0.553 | 0.545
TFFQMYDKGLV [IARS2_Y231_YF] | 0.862 | 0.531 | 0.569 | 0.52 | 0.623 | 0.57 | 1.14 | 0.566 | 1.06 | 1.03 | 0.542 | 0.734 | 0.537 | 0.99 | 0.7 | 0.526
VTQEQYELHCE [CBL_Y368_Y371H] | 1.2 | 0.708 | 0.601 | 0.542 | 0.874 | 0.736 | 1.35 | 0.576 | 0.479 | 1.1 | 0.37 | 0.791 | 0.52 | 0.656 | 0.48 | 0.571
ALAHKCHGGGG [HBB_Y146_Y146C] | 0.673 | 0.473 | 0.397 | 0.428 | 0.546 | 0.458 | 0.755 | 0.414 | 0.45 | 0.862 | 0.469 | 0.758 | 0.563 | 0.829 | 0.761 | 0.538
ICTVDYLLRLQ [RYR1_Y3921] | 1.21 | 0.659 | 0.618 | 0.529 | 0.733 | 0.736 | 1.41 | 0.539 | 0.542 | 1.12 | 0.428 | 0.966 | 0.444 | 0.852 | 0.813 | 0.459
AHPIIYEIIEA [PYKtide_E_2014] | 1.93 | 22.3 | 20.4 | 2.02 | 1.59 | 16.2 | 5.96 | 9.6 | 9.98 | 1.16 | 11.6 | 2.94 | 8.32 | 1.18 | 1.07 | 0.872
FDCKWYIPLTD [BCR_Y756_YF] | 1.45 | 0.998 | 0.818 | 0.661 | 1.06 | 0.66 | 1.49 | 0.41 | 0.581 | 1.44 | 0.625 | 0.826 | 0.466 | 0.772 | 0.745 | 0.482

Sequence | phosphorylation enrichment (AncSZ) | phosphorylation enrichment (EPHB1) | phosphorylation enrichment (EPHB2) | phosphorylation enrichment (FGFR1) | phosphorylation enrichment (FGFR3) | phosphorylation enrichment (Fer (mouse)) | phosphorylation enrichment (Fes) | phosphorylation enrichment (Fyn) | phosphorylation enrichment (Hck) | phosphorylation enrichment (Jak2) | phosphorylation enrichment (MERTK) | phosphorylation enrichment (c-Abl (mouse)) | phosphorylation enrichment (c-Src) | SH2 binding enrichment (Grb2 SH2) | SH2 binding enrichment (SHP2-C SH2) | SH2 binding enrichment (c-Src SH2)
VRTGIYHGGKP [PIK3CA_Y361_E365K] | 0.451 | 0.268 | 0.336 | 0.456 | 0.275 | 0.359 | 0.499 | 0.309 | 0.713 | 0.464 | 0.294 | 0.501 | 0.318 | 0.898 | 0.915 | 0.63
DLAAQYTTVGR [SGSH_Y240] | 0.701 | 0.407 | 0.415 | 0.462 | 0.53 | 0.382 | 0.664 | 0.52 | 0.799 | 0.724 | 0.494 | 0.542 | 0.912 | 0.824 | 1.24 | 3.41
LADMNYVHCDL [EPHB2_Y742_R745C] | 1.01 | 0.889 | 0.578 | 0.811 | 1.09 | 0.535 | 0.97 | 0.57 | 0.469 | 0.728 | 0.448 | 0.652 | 0.369 | 0.823 | 0.83 | 0.684
LTGIAYSLPHW [SLC22A14_Y291] | 1.61 | 0.969 | 0.94 | 0.658 | 0.956 | 0.877 | 1.68 | 0.921 | 1.08 | 0.997 | 3.24 | 1.41 | 0.764 | 0.847 | 5.82 | 4.06
SSSPTYLDLPF [GLI3_Y168_P169L] | 0.659 | 8.94 | 2.73 | 5.82 | 3.79 | 0.621 | 0.667 | 0.638 | 2.25 | 0.592 | 1.12 | 0.681 | 0.647 | 0.786 | 0.57 | 0.464
KGSLPYSLILD [PKD1L2_Y406_N407S] | 1.08 | 0.822 | 0.675 | 2.32 | 2.16 | 1.06 | 1.23 | 0.734 | 0.671 | 1.19 | 1.93 | 0.86 | 1.63 | 0.736 | 4.67 | 10.5
STKELYEKYMI | 0.805 | 0.504 | 0.594 | 0.484 | 0.591 | 5.61 | 0.825 | 0.602 | 0.72 | 0.69 | 0.412 | 0.518 | 0.821 | 0.798 | 0.63 | 0.891
FSAGTYPRLEE [SYCN_Y108] | 0.765 | 0.493 | 0.464 | 0.464 | 0.659 | 0.464 | 0.918 | 0.41 | 0.406 | 0.828 | 0.372 | 0.672 | 0.392 | 0.783 | 0.612 | 1.18
SSFSGYIMMPN [LEF1_Y114_YF] | 1.02 | 0.433 | 1.47 | 1.53 | 1.39 | 0.401 | 0.934 | 0.534 | 0.421 | 3.33 | 0.562 | 0.603 | 0.4 | 0.999 | 1.03 | 2.08
ILCTVYAFKMR [GRM3_Y754_T758M] | 1.46 | 0.97 | 0.568 | 0.503 | 0.89 | 0.553 | 1.47 | 0.567 | 0.55 | 1.09 | 0.47 | 0.883 | 0.65 | 0.979 | 1.1 | 0.718
IGCHAYGDQYR [IDH1_Y135_R132C] | 1.04 | 0.593 | 0.556 | 0.634 | 0.741 | 0.569 | 1.19 | 0.424 | 0.5 | 0.979 | 0.384 | 0.796 | 0.493 | 0.687 | 0.59 | 0.551
SMAKFYASEIA [ACADSB_Y373_YF] | 0.686 | 0.403 | 0.472 | 0.513 | 0.604 | 0.61 | 0.803 | 0.434 | 0.518 | 0.619 | 0.437 | 0.588 | 0.464 | 0.788 | 0.674 | 0.393
MGHVNYGAFIN [GLB1_Y485_R482H_YF] | 0.611 | 0.565 | 0.615 | 0.449 | 0.505 | 0.406 | 0.756 | 0.672 | 0.609 | 0.72 | 0.391 | 0.565 | 0.706 | 0.882 | 0.804 | 0.44
VGSIEYLKREW [KCNMA1_Y885] | 0.823 | 0.35 | 0.487 | 0.523 | 0.612 | 0.447 | 0.967 | 0.359 | 0.511 | 0.927 | 0.38 | 0.488 | 0.446 | 0.977 | 1.06 | 0.473
ALMGPYHGQVL [HADHA_Y343_L342P] | 0.544 | 0.366 | 0.41 | 0.411 | 0.436 | 0.336 | 0.537 | 0.336 | 0.384 | 0.485 | 0.335 | 0.61 | 0.46 | 0.77 | 1.03 | 0.433
ANFTEYVATSW [CDKL5_Y171_R175S_YF] | 0.983 | 0.841 | 0.988 | 1.03 | 0.983 | 0.505 | 1.03 | 0.555 | 0.511 | 0.974 | 0.512 | 0.892 | 0.578 | 0.757 | 0.809 | 0.545
